# Measured values from PMC6173970.
# Biological target: F-actin (actin purified from chicken breast, polymerized and phalloidin-stabilized) (chicken) (UniProt P68139)
# Assay: co-sedimentation
row,stoichiometry N,Substance
1,1,6xHis-FLNaABD-E254K (domain or fragment)
2,1,6xHis-FLNaABD-Q170P (from UniProt P21333 1-278) (domain or fragment)
3,1,"6xHis-FLNaABD-wt (human filamin A actin-binding domain, wild type) (from UniProt P21333 1-278) (domain or fragment)"
4,1,6xHis-FLNaABD-A128V (from UniProt P21333 1-278) (domain or fragment)
